# Data reported in US9145555B2, “Integrated—ligand-responsive microRNAs” (California Institute of Technology, priority 2009, dated 2015).
# Legend:
# [1] = tested on: transcript encoding the green fluorescent protein (GFP) in HEK 293 cells stably expressing GFP; assay: Cell culture assay for miRNA activity (GFP silencing, transient transfection, flow cytometry); type: cell-based, human; details: for response of GFP levels to hypoxanthine: 5 mM hypoxanthine; for GFP silencing: single copy, absence of ligand; for response of GFP levels to tetracycline: 100 μM tetracycline; for response of GFP levels to theophylline: transient transfection with varying theophylline concentrations
# Description: To examine the relationship between bulge size in the basal segments and gene silencing, we developed a general cell culture assay for miRNA activity (FIG. 1D). miRNAs designed to target a transcript encoding the green fluorescent protein (GFP) were inserted into the 3′ untranslated region (UTR) of a constitutively-expressed transcript encoding the fluorescent protein DsRed-Express. Plasmid DNA encoding the DsRed-Express construct was transfected into HEK 293 cells stably expressing GFP. The level of miRNA-mediated gene silencing was determined by flow cytometry analysis, where DsRed-Express levels were used to distinguish between transfected and untransfected cells. Using the cell culture assay, miRNAs with the same bulges as in the in vitro experiments were tested for silencing efficiency. […] Therefore, proper Drosha processing and gene silencing correlate with the size of the bulge in the miRNA basal segments.
# 293 and Flp-In-293 cells were maintained in DMEM supplemented with 10% FBS at 37° C. in a 5% CO2—humidified incubator. Transient transfections were conducted with Fugene 6 (Roche) according to the manufacturer's instructions one day after seeding. Immediately prior to transfection, the media was supplemented with the appropriate ligand at the specified concentration. Ligand concentrations were selected to maximize the regulatory response without severely compromising cell viability over the course of the transient assays. The media was replaced two days post-transfection. Three days post-transfection, the cells were trypsinized and subjected to flow cytometry analysis on a Cell Lab Quanta SC MPL (Beckman Coulter) and the resulting data was analyzed using the Flowjo software (Tree Star). Cells were initially gated for viability by electronic volume and side scatter. GFP and DsRed fluorescence of viable cells were measured through a 525 nm and […] band pass filter, respectively, after excitation with a 488 nm laser. Moderate to high DsRed levels served as a transfection control to gate between transfected and untransfected cells. Transfected cells could be distinguished from untransfected cells with this method even when four miRNAs were present in the 3′ UTR of the DsRed-Express encoding transcript (data not shown). GFP levels were calculated as the median fluorescence of the transfected population divided by that of the untransfected population (Beisel et al., 2008). This normalization approach corrected for the bias from pleiotropic effects associated with each small molecule. All ratios were normalized such that the value for DsRed-Express lacking a miRNA under the same conditions was set to 100%.
# [2] = tested on: xanthine aptamer; details: cited from earlier work
# [3] = tested on: endogenous La gene; assay: La transcript levels by qRT-PCR in stable 293-Flp-In cell lines; type: cell-based, human; details: four copies; for silencing of La transcript: 112 nt spacer, stable cell lines
# Description: Most of the synthetic ligand-responsive RNA-based regulatory systems are encoded in the target transcript, providing regulation in cis (Suess and Weigand, 2008). However, the regulation of endogenous genes through cis regulatory strategies is currently limiting due to the lack of directed recombination technologies. To test whether ligand-responsive miRNAs provide a trans regulatory strategy for the effective regulation of endogenous genes, we incorporated a mature miRNA sequence against the endogenous La gene into wt (La1) and th1 (La2) (FIG. 9). Four copies of each miRNA separated by the longest spacer sequence were cloned into the 3′ UTR of the transcript encoding DsRed-Express, and the resulting constructs were stably integrated into a single site in 293-Flp-In cells.
# (§1) Stable transfection of 293-Flp-In cell lines was performed using the Flp-In recombinase system (Invitrogen) according to the manufacturer's instructions to generate isogenic stable cell lines. Integrants were selected using 200 μg/ml hygromycin B (Invitrogen), whereas stable cell lines were maintained in 50 μg/ml hygromycin B. The procedure described above for the fluorescence expression analysis of transiently transfected cell populations was used to analyze the stable cell lines with notable exceptions. Normalization of flow cytometry data to untransfected cells was not performed as all cells express the integrated construct, and all data was normalized to cells lacking a miRNA and grown in the absence of theophylline. Normalization to cells grown under the same conditions was not performed since theophylline differentially affected the two negative controls: no miRNA and a self-targeting miRNA lacking the theophylline aptamer.
# Transcript levels were measured by qRT-PCR under either transient or stable transfection conditions. […] Samples were prepared in quadruplicate using the iQ SYBR green supermix and data were analyzed using the iCycler iQ software. […] The reported sample error was calculated using the following expression: […]
# [4] = tested on: transcript encoding DsRed-Express; assay: DsRed-Express levels in stable cell lines with La-targeting miRNAs (flow cytometry); type: cell-based, human; details: four copies; for response of DsRed levels to theophylline: 1.5 mM theophylline; for DsRed-Express down-regulation in cis: stable cell lines
# Description: To assess the capacity for ligand-responsive miRNAs to regulate gene expression in cis, we measured expression levels for the transcripts harboring the ligand-responsive miRNAs targeting GFP and La. DsRed-Express levels were quantified by flow cytometry under similar conditions as the trans-targeted gene silencing experiments. […] Transcript analysis confirmed that the predominant regulatory mechanism of ligand-responsive miRNAs in cis is mRNA destabilization (FIG. 10).
# as §1
molecule,measurement,setting,value
"Cn1c(=O)c2c(ncn2C)n(C)c1=O [caffeine, reference compound]",response of GFP silencing to caffeine,"[1]; 1 mM caffeine, miRNAs th1 and wt",insensitive
O=c1[nH]cnc2nc[nH]c12 [Hypoxanthine],affinity for the xanthine aptamer relative to xanthine,[2],comparable affinity
"xa2: SEQ ID NO. 32; GFP-targeting miRNA with xanthine aptamer binding core and loop, inverted (nucleic acid, expressed or natural sequence) TCTAGAACGGGTCCGAGGTCGACGTGAGCGAGCACAAGCTGGAGTACAACTATAGTGAAGCCACAGATGTATAGTTGTACTCCAGCTTGTGCCCGCCTACGTGTATTACCCAGGGCCC",response of GFP levels to hypoxanthine,[1],hypoxanthine-dependent increase in GFP levels
same,GFP silencing,[1],substantial GFP silencing
"La2: SEQ ID NO. 34; La-targeting miRNA with the theophylline aptamer in the basal segments (nucleic acid, expressed or natural sequence, 34; La-targeting miRNA with the theophylline aptamer in the basal segments) TCTAGAACGGGTCCTGATACCAGCGTGAGCGCTGGAAATCAGTGAAGATAAAATAGTGAAGCCACAGATGTATTTTATCTTCACTGATTTCCATCGCCTACGCCCTTGGCAGCAGGGCCC",response of La transcript levels to theophylline,[3]; 1.5 mM theophylline for over one week,theophylline-dependent increase in La transcript levels
same,silencing of La transcript,[3],relatively strong silencing
same,response of DsRed levels to theophylline,[4],increase in DsRed levels in the presence of theophylline
same,DsRed-Express down-regulation in cis,[4],substantial DsRed-Express down-regulation
"xa1: SEQ ID NO. 31; GFP-targeting miRNA with the binding core of the xanthine aptamer (nucleic acid, expressed or natural sequence) TCTAGAACGGGTCCGTGTATTACCTGAGCGAGCACAAGCTGGAGTACAACTATAGTGAAGCCACAGATGTATAGTTGTACTCCAGCTTGTGCCCGCCTAGGTCGACGGGCCC",GFP silencing,[1],completely abolished silencing
"tc1: SEQ ID NO. 30; GFP-targeting miRNA harboring the tetracycline aptamer (nucleic acid, miRNA, 30; GFP-targeting miRNA harboring the tetracycline aptamer) TCTAGAACGGGTCCTAAAACATACCGTGAGCGAGCACAAGCTGGAGTACAACTATAGTGAAGCCACAGATGTATAGTTGTACTCCAGCTTGTGCCTGCCTACGGAGAGGTGAAGAATACGACCACCTAGGGCCC",response of GFP levels to tetracycline,[1],tetracycline-dependent increase in GFP levels
same,GFP silencing,[1],down-regulated GFP
"m1: SEQ ID NO. 19; GFP-targeting control miRNA with a large bulge in the basal segments, no aptamer (nucleic acid) TCTAGAACGGGAAGTAATTACAGTGAGCGAGCACAAGCTGGAGTACAACTATAGTGAAGCCACAGATGTATAGTTGTACTCCAGCTTGTGCCTGCCTACTGCCACATAGGGCCC",response of GFP levels to hypoxanthine,[1],no effect
"th1′: SEQ ID NO. 24; theophylline-responsive non-targeting miRNA, scrambled mature miRNA sequence (nucleic acid) TCTAGAACGGGTCCTGATACCAGCGTGAGCGAGCACAAGCTATCAACATGAGGTAGTGAAGCCACAGATGTACCTCATGTTGATAGCTTGTGCCCGCCTACGCCCTTGGCAGCAGGGCCC",GFP silencing,[1],abolished silencing
same,GFP silencing versus miRNA copy number,[1]; up to four copies separated by 112 nt spacer,no effect on GFP levels
"wt: SEQ ID NO. 18; GFP-targeting miRNA with basal segments similar to the natural miRNA miR-30a, control (nucleic acid) TCTAGAGTTTGACAGTGAGCGAGCACAAGCTGGAGTACAACTATAGTGAAGCCACAGATGTATAGTTGTACTCCAGCTTGTGCCTGCCTACTGCCTCGGACTGAATTCATAGGGCC",GFP silencing,[1],silence GFP with comparable strength
same,response of GFP levels to theophylline,[1],insensitive to theophylline
"th2: SEQ ID NO. 25; th1 altered to target a different location in the GFP transcript (nucleic acid, expressed or natural sequence, 25; th1 altered to target a different location in the GFP transcript) TCTAGAACGGGTCCTGATACCAGCGTGAGCGCCAAGAAGATGGTGCGCTCCTGGAGTGAAGCCACAGATGTCCAGGAGCGCACCATCTTCTTGTCGCCTACGCCCTTGGCAGCAGGGCCC",GFP silencing,[1],preserved silencing
same,response of GFP levels to theophylline,[1],preserved silencing and the theophylline response
"m2: SEQ ID NO. 20; GFP-targeting control miRNA with varied bulge size, no aptamer (nucleic acid) TCTAGAACGGGAAACACAGTGAGCGAGCACAAGCTGGAGTACAACTATAGTGAAGCCACAGATGTATAGTTGTACTCCAGCTTGTGCCTGCCTACTGCCTCGGGCCC",response of GFP levels to tetracycline,[1],negligible tetracycline dependence
"La1: SEQ ID NO. 33; La-targeting miRNA with basal segments similar to miR-30a, no aptamer (nucleic acid, expressed or natural sequence, 33; La-targeting miRNA with basal segments similar to miR-30a, no aptamer) TCTAGAGTTTGACAGTGAGCGCTGGAAATCAGTGAAGATAAAATAGTGAAGCCACAGATGTATTTTATCTTCACTGATTTCCATTGCCTACTGCCTCGGACTGAATTCATAGGGCCC",silencing of La transcript,[3],relatively strong silencing
same,response of DsRed levels to theophylline,[4],not observed
same,DsRed-Express down-regulation in cis,[4],substantial DsRed-Express down-regulation
